The record followed here is publication PMC8427231, “Mechanism of dimerization and structural features of human LI-cadherin” (The Journal of Biological Chemistry, 2021).

The chains are these.
B1: human LI-cadherin EC1-4 [modified: N-glycans (four modelled on chain A, two on chain B of the crystal structure; sites not printed); N-glycans (four modelled on chain A, two on chain B of the crystal structure; sites not … (parent)
chain: QEGKFSGPLKPMTFSIYEGQEPSQIIFQFKANPPAVTFELTGETDNIFVIEREGLLYYNRALDRETRSTHNLQVAALDANGIIVEGPVPITIKVKDINDNRPTFLQSKYEGSVRQNSRPGKPFLYVNATDLDDPATPNGQLYYQIVIQLPMINNVMYFQINNKTGAISLTREGSQELNPAKNPSYNLVISVKDMGGQSENSFSDTTSVDIIVTENIWKAPKPVEMVENSTDPHPIKITQVRWNDPGAQYSLVDKEKLPRFPFSIDQEGDIYVTQPLDREEKDAYVFYAVAKDEYGKPLSYPLEIHVKVKDINDNPPTCPSPVTVFEVQENERLGNSIGTLTAHDRDEENTANSFLNYRIVEQTPKLPMDGLFLIQTYAGMLQLAKQSLKKQDTPQYNLTIEVSDKDFKTLCFVQINVID

The variants in one assay derive from B1. Briefly: SEC-MALS. The conditions noted are these: with itself; injected at 100 μM; read off a plot.
As for QEGKFSGPLKPMTFSIYEGQEPSQIIFQFKANPPAVTFELTGETDNIFVIEREGLLYYNRALDRETRSTHNLQVAALDANGIIVEGPVPITIKVKDINDNRPTFLQSKYEGSVRQNSRPGKPFLYVNATDLDDPATPNGQLYYQIVAQLPMINNVMYFQINNKTGAISLTREGSQELNPAKNPSYNLVISVKDMGGQSENSFSDTTSVDIIVTENIWKAPKPVEMVENSTDPHPIKITQVRWNDPGAQYSLVDKEKLPRFPFSIDQEGDIYVTQPLDREEKDAYVFYAVAKDEYGKPLSYPLEIHVKVKDINDNPPTCPSPVTVFEVQENERLGNSIGTLTAHDRDEENTANSFLNYRIVEQTPKLPMDGLFLIQTYAGMLQLAKQSLKKQDTPQYNLTIEVSDKDFKTLCFVQINVID [chain 1 I147A], the screen value is 50.5 kDa. Same read-out and setting: for QEGKFSGPLKPMTFSIYEGQEPSQIIFQFKANPPAVTFELTGETDNIFVIEREGLLYYNRALDRETRSTHNLQVAALDANGIIVEGPVPITIKVKDINDNRPTFLQSKYEGSVRQNSRPGKPFLYVNATDLDDPATPNGQLYYQIVIQLPMINNVMYFQINNKTGAISLTREGSQELNPAKNPSYNLVISVKDMGGQSENSFSDTTSVDIIVTENIWKAPKPVEMVENSTDPHPIKITQVRWNDPGAQYSLVDKEKLPRFPFSIDQEGDIYVTQPLDREEKDAYVFYAVAKDEYGKPLSYPLEIHVKVKDINDNPPTCPSPVTVFEVQENERLGNSIGTLTAHDRDEENTANSFLNYRIVEQTPKLPMDGLFLIQTYAGMLALAKQSLKKQDTPQYNLTIEVSDKDFKTLCFVQINVID [chain 1 Q382A] the value was 52.7 kDa; for QEGKFSGPLKPMTFSIYEGQEPSQIIFQFKANPPAVTFELTGETDNIFVIEREGLLYYNRALDRETRSTHNLQVAALDANGIIVEGPVPITIKVKDINDNRPTFLQSKYEGSVRQNSRPGKPFLYVNATDLDDPATPNGQLYYQIVIQLPMINAVMYFQINNKTGAISLTREGSQELNPAKNPSYNLVISVKDMGGQSENSFSDTTSVDIIVTENIWKAPKPVEMVENSTDPHPIKITQVRWNDPGAQYSLVDKEKLPRFPFSIDQEGDIYVTQPLDREEKDAYVFYAVAKDEYGKPLSYPLEIHVKVKDINDNPPTCPSPVTVFEVQENERLGNSIGTLTAHDRDEENTANSFLNYRIVEQTPKLPMDGLFLIQTYAGMLQLAKQSLKKQDTPQYNLTIEVSDKDFKTLCFVQINVID [chain 1 N154A], 53.1 kDa. For QEGKFSGPLKPMTFSIYEGQEPSQIIFQFKANPPAVTFELTGETDNIFVIEREGLLYYNRALDRETRSTHNLQVAALDANGIIVEGPVPITIKVKDINDNRPTFLQSKYEGSVRQNSRPGKPFLYVNATDLDDPATPNGQLYYQIVIQAPMINNVMYFQINNKTGAISLTREGSQELNPAKNPSYNLVISVKDMGGQSENSFSDTTSVDIIVTENIWKAPKPVEMVENSTDPHPIKITQVRWNDPGAQYSLVDKEKLPRFPFSIDQEGDIYVTQPLDREEKDAYVFYAVAKDEYGKPLSYPLEIHVKVKDINDNPPTCPSPVTVFEVQENERLGNSIGTLTAHDRDEENTANSFLNYRIVEQTPKLPMDGLFLIQTYAGMLQLAKQSLKKQDTPQYNLTIEVSDKDFKTLCFVQINVID [chain 1 L149A], the screen value is 51.1 kDa.

Take QEGKFSGPLKPMTFSIYEGQEPSQIIFQFKANPPAVTFELTGETDNIFVIEREGLLYYNRALDRETRSTHNLQVAALDANGIIVEGPVPITIKVKDINDNRPTFLQSKYEGSVRQNSRPGKPFLYVNATDLDDPATPNGQLYYQIVIQLPMINNVMYFQINNKTGAISLTREGSQELNPAKNPSYNLVISVKDMGGQSENSFSDTTSVDIIVTENIWKAPKPVEMVENSTDPHPIKITQVRWNDPGAQYSLVDKEKLPRFPFSIDQEGDIYVTQPLDREEKDAYVFYAVAKDEYGKPLSYPLEIHVKVKDINDNPPTCPSPVTVFEVQENERAGNSIGTLTAHDRDEENTANSFLNYRIVEQTPKLPMDGLFLIQTYAGMLQLAKQSLKKQDTPQYNLTIEVSDKDFKTLCFVQINVID [chain 1 L333A]: the screen value was 54.8 kDa. On the same count and under the same terms, with QEGKFSGPLKPMTFSIYEGQEPSQIIFQFKANPPAVTFELTGETDNIFVIEREGLLYYNRALDRETRSTHNLQVAALDANGIIVEGPVPITIKVKDINDNRPTFLQSKYEGSVRQNSRPGKPFLYVNATDLDDPATPNGQLYYQIVIQLPMINNVMYFQINNKTGAISLTREGSQELNPAKNPSYNLAISVKDMGGQSENSFSDTTSVDIIVTENIWKAPKPVEMVENSTDPHPIKITQVRWNDPGAQYSLVDKEKLPRFPFSIDQEGDIYVTQPLDREEKDAYVFYAVAKDEYGKPLSYPLEIHVKVKDINDNPPTCPSPVTVFEVQENERLGNSIGTLTAHDRDEENTANSFLNYRIVEQTPKLPMDGLFLIQTYAGMLQLAKQSLKKQDTPQYNLTIEVSDKDFKTLCFVQINVID [chain 1 V188A] the figure was 51.5 kDa; with QEGKFSGPLKPMTFSIYEGQEPSQIIFQFKANPPAVTFELTGETDNIFVIEREGLLYYNRALDRETRSTHNLQVAALDANGIIVEGPVPITIKVKDINDNRPTFLQSKYEGSVRQNSRPGKPFLYVNATDLDDPATPNGQLYYQIVIQLPMINNVMYFQINNKTGAISLTREGSQELNPAKNPSYNLVISVKDMGGQSENSASDTTSVDIIVTENIWKAPKPVEMVENSTDPHPIKITQVRWNDPGAQYSLVDKEKLPRFPFSIDQEGDIYVTQPLDREEKDAYVFYAVAKDEYGKPLSYPLEIHVKVKDINDNPPTCPSPVTVFEVQENERLGNSIGTLTAHDRDEENTANSFLNYRIVEQTPKLPMDGLFLIQTYAGMLQLAKQSLKKQDTPQYNLTIEVSDKDFKTLCFVQINVID [chain 1 F202A], 49.5 kDa. On the same count and under the same terms, for QEGKFSGPLKPMTFSIYEGQEPSQIIFQFKANPPAVTFELTGETDNIFVIEREGLLYYNRALDRETRSTHNLQVAALDANGIIVEGPVPITIKVKDINDNRPTFLQSKYEGSVRQNSRPGKPFLYVNATDLDDPATPNGQLYYQIVIQLPMINNVMYFQINNKTGAISLTREGSQELNPAKNPSYNLVISVKDMGGQSENSFSDTTSVDIIVTENIWKAPKPVEMVENSTDPHPIKITQVRWNDPGAQYSLVDKEKLPRFPFSIDQEGDIYVTQPLDREEKDAYVFYAVAKDEYGKPLSYPLEIHVKVKDINDNPPTCPSPVTVFEVQENERLGNSIGTLTAHDRDEENTANSALNYRIVEQTPKLPMDGLFLIQTYAGMLQLAKQSLKKQDTPQYNLTIEVSDKDFKTLCFVQINVID [chain 1 F354A] the value was 55.1 kDa; for QEGKFSGPLKPMTFSIYEGQEPSQIIFQFKANPPAVTFELTGETDNIFVIEREGLLYYNRALDRETRSTHNLQVAALDANGIIVEGPVPITIKVKDINDNRPTFLQSKYEGSVRQNSRPGKPFLYVNATDLDDPATPNGQLYYQIVIQLPMINNVMYFQINNKTGAISLTREGSQELNPAKNPSYNLVISVKDMGGQSENSFSDTTSVDIIVTENIWKAPKPVEMVENSTDPHPIKITQVRWNDPGAQYSLVDKEKLPRFPFSIDQEGDIYVTQPLDREEKDAYVFYAVAKDEYGKPLSYPLEIHVKVKDINDNPPTCPSPVTVFEVQENERLGNSIGTLTAHDRDEEATANSFLNYRIVEQTPKLPMDGLFLIQTYAGMLQLAKQSLKKQDTPQYNLTIEVSDKDFKTLCFVQINVID [chain 1 N349A], 52.4 kDa.

QEGKFSGPLKPMTFSIYEGQEPSQIIFQFKANPPAVTFELTGETDNIFVIEREGLLYYNRALDRETRSTHNLQVAALDANGIIVEGPVPITIKVKDINDNRPTFLQSKYEGSVRQNSRPGKPFLYVNATDLDDPATPNGQLYYQIVIQLPMINNVMYFQINNKTGAISLTREGSQELNPAKNPSYNLVISVKDMGGQSEASFSDTTSVDIIVTENIWKAPKPVEMVENSTDPHPIKITQVRWNDPGAQYSLVDKEKLPRFPFSIDQEGDIYVTQPLDREEKDAYVFYAVAKDEYGKPLSYPLEIHVKVKDINDNPPTCPSPVTVFEVQENERLGNSIGTLTAHDRDEENTANSFLNYRIVEQTPKLPMDGLFLIQTYAGMLQLAKQSLKKQDTPQYNLTIEVSDKDFKTLCFVQINVID [chain 1 N200A]: the screen value worked out at 52.2 kDa. On to QEGKFSGPLKPMTFSIYEGQEPSQIIFQFKANPPAVTFELTGETDNIFVIEREGLLYYNRALDRETRSTHNLQVAALDANGIIVEGPVPITIKVKDINDNRPTFLQSKYEGSVRQNSRPGKPFLYVNATDLDDPATPNGQLYYQIVIQLPMINNVMYFQINNKTGAISLTREGSQELNPAKNPSYNLVISVKDMGGQSENSFSDTTSVDIIVTENIWKAPKPVEMVENSTDPHPIKITQVRWNDPGAQYSLVDKEKLPRFPFSIDQEGDIYVTQPLDREEKDAYVFYAVAKDEYGKPLSYPLEIHVKVKDINDNPPTCPSPVTVFEVQENERLGNSIGTLTAHDRDEENTANSFLNYRIVEQTPKLPMDGLFLIQTAAGMLQLAKQSLKKQDTPQYNLTIEVSDKDFKTLCFVQINVID [chain 1 Y377A], for which the screen value stood at 53.6 kDa.

The same assay, now with this note: with itself; injected at 50 μM; read off a plot.
With QEGKFSGPLKPMTFSIYEGQEPSQIIFQFKANPPAVTFELTGETDNIFVIEREGLLYYNRALDRETRSTHNLQVAALDANGIIVEGPVPITIKVKDINDNRPTFLQSKYEGSVRQNSRPGKPFLYVNATDLDDPATPNGQLYYQIVIQLPMINNVMYFQINNKTGAISLTREGSQELNPAKNPSYNLVISVKDMGGQSENSASDTTSVDIIVTENIWKAPKPVEMVENSTDPHPIKITQVRWNDPGAQYSLVDKEKLPRFPFSIDQEGDIYVTQPLDREEKDAYVFYAVAKDEYGKPLSYPLEIHVKVKDINDNPPTCPSPVTVFEVQENERLGNSIGTLTAHDRDEENTANSFLNYRIVEQTPKLPMDGLFLIQTYAGMLQLAKQSLKKQDTPQYNLTIEVSDKDFKTLCFVQINVID [chain 1 F202A], the screen value turned out to be 58 kDa.
